Where “and” joins values, the source holds several entries; their conditions need not be identical. Equal entries are not always repeated.
Experiments:
Assay type in all cases: biochemical
[1] = Small-scale anaerobic C—H amination with purified enzymes, azide 4
Procedure: (§1) Hemin also was capable of catalyzing this reaction when reduced with dithionite (Table 13).
(§2) Small scale reactions containing either 0.1% loading of ABC-CIS or ABC-T268A or 1% loading of hemin with azides 1, 4, or 6 according to standard procedures.
(§3) Small-scale reactions (400 μL) were conducted in 2 mL crimp vials (Agilent Technologies, San Diego, Calif.) containing buffer (0.1 M potassium phosphate pH 8.0), enzyme (0.1-0.5% catalyst loading) and oxygen depletion system (10× stock solution containing 14,000 U/mL catalase, 1,000 U/mL glucose oxidase dissolved in 0.1 M KPi pH 8.0). Enzyme (P450 or P411) solution and oxygen depletion mixture were added to the vial with a small stir bar before crimp-sealing. Portions of phosphate buffer (190 μL, 0.1 M, pH=8.0), glucose (40 μL, 250 mM) and NADPH (40 μL, 20 mM), or multiples thereof, were combined in a larger crimp sealed vial and degassed by sparging with argon for at least 5 min. In the meantime, the headspace of the sealed 2 mL reaction vial with the P450 solution was made anaerobic by flushing argon over the protein solution (with no bubbling). The buffer/reductant/glucose solution (270 μL) was syringed into the reaction vial with continuous argon purge of the vial headspace. An arylsulfonyl azide solution in DMSO (10 μL, 80 mM) was added to the reaction vial via a glass syringe, and the reaction was left stirring for 24 h at room temperature under positive argon pressure. Final concentrations of the reagents were typically: 2 mM arylsulfonyl azide, 2 mM NADPH, 25 mM glucose, 2 or 10 μM P450. Reactions were quenched by adding 30 μL 3 M HCl under argon. To the vials were then added acetonitrile (430 uL) and internal standard (o-toluenesulfonamide 10 mM in 50% acetonitrile 50% water, 1 mM final concentration). […] A portion (20 μL) of the supernatant was then analyzed by HPLC. […] Sultam formation was quantified comparison of integrated peak areas of internal standard and sultam at 220 nm to a calibration curve made using synthetically produced sultam and internal standard.

[2] = Small-scale anaerobic C—H amination with purified enzymes, azide 1; settings: for Product (3) / TTN on substrate 1: 1% loading of hemin; for % ee: 0.1 mol % catalyst loading, (S−R)/(S+R)
In short: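 Purified P450 or P411 enzymes (0.1-0.5% catalyst loading) in 400 μL reactions of 0.1 M potassium phosphate pH 8.0 with a catalase/glucose oxidase oxygen-depletion system were made anaerobic under argon, given 10 μL of 80 mM arylsulfonyl azide in DMSO, and stirred 24 h at room temperature. After HCl quench and acetonitrile addition, sultam was quantified by HPLC at 220 nm against an internal standard; enantioselectivity was measured by chiral HPLC.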

[3] = Small-scale anaerobic C—H amination with purified enzymes, azide 6
Procedure: as §1, §2, §3

[4] = 0.1 mol % catalyst loading (2 μM), 2 mM azide 1, 2 mM NADPH, benzosultam 3
[5] = catalyst loading 0.5 mol %, NADPH, anaerobic

## hemin
[1]; free hemin, 1% loading
  activity on substrate 4: no measurable activity
[2]
  Product (3) / TTN on substrate 1: 3.1
[2]; listed as hemin
  Product (3) / TTN on substrate 1: 3
[2]; CS-P450 + Hemin
  % activity: 0%
[2]; CS-P450 + Hemin (2 μM hemin)
  TTN: 0
[2]; reaction with hemin
  stereochemical outcome of product 3: racemic
[3]; 1% loading of hemin
  Product (7) / TTN on substrate 6: 55

B1: P450BM3: wild-type cytochrome P450BM3 from Bacillus megaterium (SEQ ID NO: 1) (protein, listed as Bacillus megaterium)
chain: TIKEMPQPKTFGELKNLPLLNTDKPVQALMKIADELGEIFKFEAPGRVTRYLSSQRLIKEACDESRFDKNLSQALKFVRDFAGDGLFTSWTHEKNWKKAHNILLPSFSQQAMKGYHAMMVDIAVQLVQKWERLNADEHIEVPEDMTRLTLDTIGLCGFNYRFNSFYRDQPHPFITSMVRALDEAMNKLQRANPDDPAYDENKRQFQEDIKVMNDLVDKIIADRKASGEQSDDLLTHMLNGKDPETGEPLDDENIRYQIITFLIAGHETTSGLLSFALYFLVKNPHVLQKAAEEAARVLVDPVPSYKQVKQLKYVGMVLNEALRLWPTAPAFSLYAKEDTVLGGEYPLEKGDELMVLIPQLHRDKTIWGDDVEEFRPERFENPSAIPQHAFKPFGNGQRACIGQQFALHEATLVLGMMLKHFDFEDHTNYELDIKETLTLKPEGFVVKAKSKKIPLGGIPSPSTEQSAKKVRKKAENAHNTPLLVLYGSNMGTAEGTARDLADIAMSKGFAPQVATLDSHAGNLPREGAVLIVTASYNGHPPDNAKQFVDWLDQASADEVKGVRYSVFGCGDKNWATTYQKVPAFIDETLAAKGAENIADRGEADASDDFEGTYEEWREHMWSDVAAYFNLDIENSEDNKSTLSLQFVDSAADMPLAKMHGAFSTNVVASKELQQPGSARSTRHLEIELPKEASYQEGDHLGVIPRNYEGIVNRVTARFGLDASQQIRLEAEEEKLAHLPLAKTVSVEELLQYVELQDPVTRTQLRAMAAKTVCPPHKVELEALLEKQAYKEQVLAKRLTMLELLEKYPACEMKFSEFIALLPSIRPRYYSISSSPRVDEKQASITVSVVSGEAWSGYGEYKGIASNYLAELQEGDTITCFISTPQSEFTLPKDPETPLIMVGPGTGVAPFRGFVQARKQLKEQGQSLGEAHLYFGCRSPHEDYLYQEELENAQSEGIITLHTAFSRMPNQPKTYVQHVMEQDGKKLIELLDQGAHFYICGDGSQMAPAVEATLMKSYADVHQVSEADARLWLQQLEEKGRYAKDVWAG
modifications: cytochrome P450NADPH-P-450 reductase precursor, cytochrome P450 (BM3), CYP102A1
[2]; [4]
  TTN: 2.1
[2]; [5]
  TTN (C—H amination product 3): 4

B2: BM3-T268A: P450BM3 variant: T268A (protein, listed as Bacillus megaterium)
chain: TIKEMPQPKTFGELKNLPLLNTDKPVQALMKIADELGEIFKFEAPGRVTRYLSSQRLIKEACDESRFDKNLSQALKFVRDFAGDGLFTSWTHEKNWKKAHNILLPSFSQQAMKGYHAMMVDIAVQLVQKWERLNADEHIEVPEDMTRLTLDTIGLCGFNYRFNSFYRDQPHPFITSMVRALDEAMNKLQRANPDDPAYDENKRQFQEDIKVMNDLVDKIIADRKASGEQSDDLLTHMLNGKDPETGEPLDDENIRYQIITFLIAGHEATSGLLSFALYFLVKNPHVLQKAAEEAARVLVDPVPSYKQVKQLKYVGMVLNEALRLWPTAPAFSLYAKEDTVLGGEYPLEKGDELMVLIPQLHRDKTIWGDDVEEFRPERFENPSAIPQHAFKPFGNGQRACIGQQFALHEATLVLGMMLKHFDFEDHTNYELDIKETLTLKPEGFVVKAKSKKIPLGGIPSPSTEQSAKKVRKKAENAHNTPLLVLYGSNMGTAEGTARDLADIAMSKGFAPQVATLDSHAGNLPREGAVLIVTASYNGHPPDNAKQFVDWLDQASADEVKGVRYSVFGCGDKNWATTYQKVPAFIDETLAAKGAENIADRGEADASDDFEGTYEEWREHMWSDVAAYFNLDIENSEDNKSTLSLQFVDSAADMPLAKMHGAFSTNVVASKELQQPGSARSTRHLEIELPKEASYQEGDHLGVIPRNYEGIVNRVTARFGLDASQQIRLEAEEEKLAHLPLAKTVSVEELLQYVELQDPVTRTQLRAMAAKTVCPPHKVELEALLEKQAYKEQVLAKRLTMLELLEKYPACEMKFSEFIALLPSIRPRYYSISSSPRVDEKQASITVSVVSGEAWSGYGEYKGIASNYLAELQEGDTITCFISTPQSEFTLPKDPETPLIMVGPGTGVAPFRGFVQARKQLKEQGQSLGEAHLYFGCRSPHEDYLYQEELENAQSEGIITLHTAFSRMPNQPKTYVQHVMEQDGKKLIELLDQGAHFYICGDGSQMAPAVEATLMKSYADVHQVSEADARLWLQQLEEKGRYAKDVWAG
modifications: cytochrome P450NADPH-P-450 reductase precursor, cytochrome P450 (BM3), CYP102A1
[2]; [4]
  TTN: 15
[2]; benzosultam 3
  % ee: 36%
[2]; NADPH (2 mM), 0.1 mol % loading, azide 1
  activity with reductant NADPH: 22
[2]; [5]
  TTN (C—H amination product 3): 28
[2]; dithionite (2 mM), 0.1 mol % loading, azide 1
  activity with reductant Dithionite: 25

B3: ABC-CIS: BM3-CIS + C400S (protein, listed as Bacillus megaterium)
chain: TIKEMPQPKTFGELKNLPLLNTDKPVQALMKIADELGEIFKFEAPGRVTRYLSSQRLIKEACDESRFDKNLSQALKFARDFAGDGLVTSWTHEKNWKKAHNILLPSFSQQAMKGYHAMMVDIAVQLVQKWERLNADEHIEVSEDMTRLTLDTIGLCGFNYRFNSFYRDQPHPFIISMVRALDEVMNKLQRANPDDPAYDENKRQFQEDIKVMNDLVDKIIADRKARGEQSDDLLTQMLNGKDPETGEPLDDGNIRYQIITFLIAGHEATSGLLSFALYFLVKNPHVLQKVAEEAARVLVDPVPSYKQVKQLKYVGMVLNEALRLWPTAPAFSLYAKEDTVLGGEYPLEKGDEVMVLIPQLHRDKTVWGDDVEEFRPERFENPSAIPQHAFKPFGNGQRASIGQQFALHEATLVLGMMLKHFDFEDHTNYELDIKETLTLKPKGFVVKAKSKKIPLGGIPSPSTEQSAKKVRKKAENAHNTPLLVLYGSNMGTAEGTARDLADIAMSKGFAPQVATLDSHAGNLPREGAVLIVTASYNGHPPDNAKQFVDWLDQASADEVKGVRYSVFGCGDKNWATTYQKVPAFIDETLAAKGAENIADRGEADASDDFEGTYEEWREHMWSDVAAYFNLDIENSEDNKSTLSLQFVDSAADMPLAKMHGAFSTNVVASKELQQPGSARSTRHLEIELPKEASYQEGDHLGVIPRNYEGIVNRVTARFGLDASQQIRLEAEEEKLAHLPLAKTVSVEELLQYVELQDPVTRTQLRAMAAKTVCPPHKVELEALLEKQAYKEQVLAKRLTMLELLEKYPACEMKFSEFIALLPSIRPRYYSISSSPRVDEKQASITVSVVSGEAWSGYGEYKGIASNYLAELQEGDTITCFISTPQSEFTLPKDPETPLIMVGPGTGVAPFRGFVQARKQLKEQGQSLGEAHLYFGCRSPHEDYLYQEELENAQSEGIITLHTAFSRMPNQPKTYVQHVMEQDGKKLIELLDQGAHFYICGDGSQMAPAVEATLMKSYADVHQVSEADARLWLQQLEEKGRYAKDVWAG
modifications: cytochrome P450NADPH-P-450 reductase precursor, cytochrome P450 (BM3), CYP102A1
notes: BM3-CIS + C400S
[1]; 0.1% loading, azide 4
  Product (5): 26
[2]; 0.1% loading, azide 1, TTN
  Product (3): 310
[2]; [4]
  TTN: 313 and 310
[2]; benzosultam 3
  % ee: 67%
[2]; [NADPH] 0 mM
  TTN: 0
  [sultam]: 0 mM
[2]; [NADPH] 0.01 mM
  TTN: 27
  [sultam]: 0.053 mM
[2]; [NADPH] 0.02 mM
  TTN: 82
  [sultam]: 0.164 mM
[2]; [NADPH] 0.1 mM
  TTN: 243
  [sultam]: 0.486 mM
[2]; [NADPH] 2 mM
  TTN: 161
[2]; [NADPH] 2 mM, 0.1 mol % loading
  [sultam]: 0.322 mM
[2]; [5]
  TTN (C—H amination product 3): over 140
  yield of 3 by HPLC: 73%
[3]; 0.1% loading, azide 6
  Product (7): 36

From US20150267232A1, “IN VIVO AND IN VITRO CARBENE INSERTION AND NITRENE TRANSFER REACTIONS CATALYZED BY HEME ENZYMES” (California Institute of Technology, priority 2012, published 2015)
